Measured values as given in patent US20140178332A1 (published 2014).

How the values were obtained:
[1] = molecular target: T1, recombinant purified human IL-12 p70 (human, UniProt P29459 23-219); assay: SPR (Biacore), mAb captured on anti-mouse IgG Fc, IL-12 p70 as analyte
T1 construct: Disulfide-linked heterodimer of p35 and p40; also called hIL-12; Hu IL-12
T1 sequence 1: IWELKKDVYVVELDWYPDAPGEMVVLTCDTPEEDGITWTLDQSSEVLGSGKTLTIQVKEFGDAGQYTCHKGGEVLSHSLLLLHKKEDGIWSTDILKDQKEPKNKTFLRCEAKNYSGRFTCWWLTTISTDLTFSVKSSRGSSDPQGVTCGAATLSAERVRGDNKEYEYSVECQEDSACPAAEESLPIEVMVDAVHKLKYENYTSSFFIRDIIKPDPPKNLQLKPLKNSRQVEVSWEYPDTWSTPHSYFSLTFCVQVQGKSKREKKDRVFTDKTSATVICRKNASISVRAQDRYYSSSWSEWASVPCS
T1 sequence 2: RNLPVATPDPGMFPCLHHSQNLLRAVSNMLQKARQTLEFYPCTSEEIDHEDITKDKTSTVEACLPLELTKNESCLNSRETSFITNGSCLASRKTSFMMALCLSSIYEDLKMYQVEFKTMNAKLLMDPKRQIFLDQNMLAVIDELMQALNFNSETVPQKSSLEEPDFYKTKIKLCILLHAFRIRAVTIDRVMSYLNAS
Experimental: The BIACORE assay (Biacore, Inc, Piscataway, N.J.) determines the affinity of antibodies with kinetic measurements of on-, off-rate constants. Binding of antibodies to recombinant purified human IL-12 p70 or recombinant purified human IL-12 p40 were determined by surface plasmon resonance-based measurements with a Biacore® 3000 instrument (Biacore® AB, Uppsala, Sweden) using running HBS-EP (10 mM HEPES [pH 7.4], 150 mM NaCl, 3 mM EDTA, and 0.005% surfactant P20) at 25° C. All chemicals were obtained from Biacore® AB (Uppsala, Sweden) or otherwise from a different source as described in the text. Approximately 5000 RU of goat anti-mouse IgG, (Fcγ), fragment specific polyclonal antibody (Pierce Biotechnology Inc, Rockford, Ill.) diluted in 10 mM sodium acetate (pH 4.5) was directly immobilized across a CM5 research grade biosensor chip using a standard amine coupling kit according to manufacturer's instructions and procedures at 25 μg/ml. Unreacted moieties on the biosensor surface were blocked with ethanolamine. Modified carboxymethyl dextran surface in flowcell 2 and 4 was used as a reaction surface. Unmodified carboxymethyl dextran without goat anti-mouse IgG in flow cell 1 and 3 was used as the reference surface. For kinetic analysis, rate equations derived from the 1:1 Langmuir binding model were fitted simultaneously to association and dissociation phases of all eight injections (using global fit analysis) with the use of Biaevaluation 4.0.1 software. Purified antibodies were diluted in HEPES-buffered saline for capture across goat anti-mouse IgG specific reaction surfaces. Mouse antibodies to be captured as a ligand (25 μg/ml) were injected over reaction matrices at a flow rate of 5 μl/min. The association and dissociation rate constants, kₒₙ (unit M⁻¹ s⁻¹) and koff (unit s⁻¹) were determined under a continuous flow rate of 25 μl/min. Rate constants were derived by making kinetic binding measurements at ten different antigen concentrations ranging from 10-200 nM. The equilibrium dissociation constant (unit M) of the reaction between mouse antibodies and recombinant purified human IL-12 p70 or recombinant purified human IL-12 p40 was then calculated from the kinetic rate constants by the following formula: KD=koff/kₒₙ. Binding is recorded as a function of time and kinetic rate constants are calculated.

[2] = molecular target: T1, recombinant purified human IL-12 p70; assay: competition ELISA on coated human IL-12, competitor of 0.8 µg/ml biotinylated 8E1, Expt. 1
Experimental: (§1) MaxiSorp ELISA plates (Nalge Nunc International) were coated overnight at 4° C. with 100 μl/well of 1.0 μg/ml human IL-12 in 0.2 M sodium carbonate-bicarbonate buffer, pH 9.4, washed with Wash Buffer (PBS containing 0.1% Tween 20), and blocked for 1 hr at room temperature with 300 μl/well of SuperBlock Blocking Buffer in TBS (Pierce Chemical Company). […] As isotype controls, 100 μl/well of 100 μg/ml mouse IgG 1/κ (MuFd79) or humanized IgG1/κ (HuFd79) monoclonal antibodies in ELISA buffer was used. As a no-competitor control, 100 μl/well of ELISA Buffer was used. After incubating the plates for 1 hr at room temperature, and washing with Wash Buffer, bound antibodies were detected using 100 μl/well of 1 μg/ml HRP-conjugated streptavidin (Pierce Chemical Company) in ELISA buffer. After incubating for 1 hr at room temperature, and washing with Wash Buffer, color development was performed by adding 100 μl/well of ABTS Peroxidase Substrate/Peroxidase Solution B (KPL, Inc.). After incubating for 5 min at room temperature, color development was stopped by adding 50 μl/well of 2% oxalic acid. Absorbance was read at 415 nm.
(§2) The affinity of 8E1.4, 8E1.5 and 8E1.6 to human IL-12 was analyzed by competition ELISA as described above.

[3] = molecular target: T1, recombinant purified human IL-12 p70; assay: competition ELISA on coated human IL-12, competitor of 0.8 µg/ml biotinylated 8E1, Expt. 2
Experimental: MaxiSorp ELISA plates (Nalge Nunc International) were coated overnight at 4° C. with 100 μl/well of 1.0 μg/ml human IL-12 in 0.2 M sodium carbonate-bicarbonate buffer, pH 9.4, washed with Wash Buffer (PBS containing 0.1% Tween 20), and blocked for 1 hr at room temperature with 300 μl/well of SuperBlock Blocking Buffer in TBS (Pierce Chemical Company). After washing with Wash Buffer, a mixture of biotinylated 8E 1 ([…] final concentration) and competitor antibody (8E1 or 8E1.4 or 8E1.5 or 8E1.6) starting at 100 μg/ml final concentration and serially diluted 3-fold) in 100 μl/well of ELISA buffer was added in duplicate. As isotype controls, 100 μl/well of 100 μg/ml mouse IgG 1/κ (MuFd79) or humanized IgG1/κ (HuFd79) monoclonal antibodies in ELISA buffer was used. As a no-competitor control, 100 μl/well of ELISA Buffer was used. After incubating the plates for 1 hr at room temperature, and washing with Wash Buffer, bound antibodies were detected using 100 μl/well of 1 μg/ml HRP-conjugated streptavidin (Pierce Chemical Company) in ELISA buffer. After incubating for 1 hr at room temperature, and washing with Wash Buffer, color development was performed by adding 100 μl/well of ABTS Peroxidase Substrate/Peroxidase Solution B (KPL, Inc.). […] Absorbance was read at 415 nm.
as §2

[4] = molecular target: T1, recombinant purified human IL-12 p70; assay: competition ELISA on coated human IL-12, competitor of 0.8 µg/ml biotinylated 8E1, Expt. 3
Experimental: as §1, §2

B1: murine anti-human IL-12p40 monoclonal antibody 8E1 (antibody, V domains shown)
VH: EVKLVESGGGLVQPGGSRKLSCAASGFTFSDYGMVWVRQAPGKGLEWVASISSGSSNIYYADTVKGRFTISRDDPNNTLFLQMRSLRSEDTAMYYCARNPYWGQGTTLTVSS
VL: DIVMTQSQKFMSTSVGDRVSVTCKASQNVGTNVAWYQQKPGQSPKGLIYSASHRYSGVPDRFAGSGSGTDFTLTISNVQSEDLAEYFCQQYNSYPLTFGGGTKLELKR
notes: Murine mAb; also called biotinylated 8E1
**Q.** For B1, which Kd [1] is on record?
**A.** Its Kd is 0.074 nM.

**Q.** And the koff [1]?
**A.** Its koff is 5.1e-05 s⁻¹.

**Q.** What about the kon [1] of the same binder?
**A.** The kon was 690000 M⁻¹ s⁻¹.

**Q.** What about the IC50 [2] of the same binder?
**A.** Its IC50 is 2.63 µg/mL.

**Q.** And the IC50 [3]?
**A.** Its IC50 is 2.78 µg/mL.

**Q.** What about the IC50 [4] of the same binder?
**A.** Its IC50 is 2.28 µg/mL.
